# Data as given in US20240254227A1 (Alector, published 2024).
# T1: murine CD300C-Fc (mouse)
# T1 construct: mouse IgG2a-Fc fusion (R&D Systems); the entry is the whole fusion chain; also called mCD300C; Mouse CD300C-Fc
# T1 chain: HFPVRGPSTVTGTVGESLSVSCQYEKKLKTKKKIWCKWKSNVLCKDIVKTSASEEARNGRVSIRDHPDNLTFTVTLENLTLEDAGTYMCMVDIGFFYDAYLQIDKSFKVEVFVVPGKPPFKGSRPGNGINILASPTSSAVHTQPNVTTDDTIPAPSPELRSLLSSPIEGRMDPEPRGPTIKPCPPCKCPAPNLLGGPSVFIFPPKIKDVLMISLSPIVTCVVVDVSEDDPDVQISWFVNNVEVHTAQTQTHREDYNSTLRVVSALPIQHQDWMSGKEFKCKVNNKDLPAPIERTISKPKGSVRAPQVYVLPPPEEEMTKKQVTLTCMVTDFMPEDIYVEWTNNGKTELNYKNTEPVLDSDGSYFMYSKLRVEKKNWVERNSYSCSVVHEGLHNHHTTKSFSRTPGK
# T2: human CD300D-Fc (human)
# T2 construct: hIgG1-Fc fusion; the entry is the whole fusion chain
# T2 chain: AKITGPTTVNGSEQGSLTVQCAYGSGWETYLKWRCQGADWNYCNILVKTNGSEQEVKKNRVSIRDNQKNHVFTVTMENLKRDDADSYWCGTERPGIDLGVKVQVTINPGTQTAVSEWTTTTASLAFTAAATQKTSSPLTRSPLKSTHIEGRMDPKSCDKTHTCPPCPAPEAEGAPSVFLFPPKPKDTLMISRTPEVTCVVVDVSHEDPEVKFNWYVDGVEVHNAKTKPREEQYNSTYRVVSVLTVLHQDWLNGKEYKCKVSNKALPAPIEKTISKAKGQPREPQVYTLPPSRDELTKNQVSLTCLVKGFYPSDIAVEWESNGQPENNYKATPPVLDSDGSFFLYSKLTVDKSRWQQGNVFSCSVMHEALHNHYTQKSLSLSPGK
# T3: human CD300F-Fc (human)
# T3 construct: hIgG1-Fc fusion; the entry is the whole fusion chain
# T3 chain: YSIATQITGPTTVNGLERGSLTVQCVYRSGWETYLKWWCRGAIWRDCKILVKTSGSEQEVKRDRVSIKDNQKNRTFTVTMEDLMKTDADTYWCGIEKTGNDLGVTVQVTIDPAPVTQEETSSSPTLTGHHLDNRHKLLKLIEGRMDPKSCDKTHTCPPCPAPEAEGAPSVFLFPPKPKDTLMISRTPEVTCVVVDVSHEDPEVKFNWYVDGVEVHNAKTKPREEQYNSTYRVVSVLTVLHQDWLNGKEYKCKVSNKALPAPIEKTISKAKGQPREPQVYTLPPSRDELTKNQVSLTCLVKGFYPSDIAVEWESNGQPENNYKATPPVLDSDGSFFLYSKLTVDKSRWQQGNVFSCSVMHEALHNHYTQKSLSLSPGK
# T4: human CD300A-Fc (human)
# T4 construct: hIgG1-Fc fusion; the entry is the whole fusion chain
# T4 chain: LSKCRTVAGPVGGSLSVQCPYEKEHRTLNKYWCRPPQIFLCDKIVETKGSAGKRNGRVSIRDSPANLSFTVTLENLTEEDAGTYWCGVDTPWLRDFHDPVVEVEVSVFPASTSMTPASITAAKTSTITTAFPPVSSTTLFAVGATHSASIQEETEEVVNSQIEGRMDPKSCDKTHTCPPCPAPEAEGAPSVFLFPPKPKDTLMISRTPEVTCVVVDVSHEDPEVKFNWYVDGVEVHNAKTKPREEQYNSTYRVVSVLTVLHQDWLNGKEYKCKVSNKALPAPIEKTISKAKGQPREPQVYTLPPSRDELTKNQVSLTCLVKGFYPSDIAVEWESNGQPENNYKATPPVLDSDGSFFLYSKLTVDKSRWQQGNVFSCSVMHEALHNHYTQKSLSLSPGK
# Columns and labels:
# Assay in all cases: SPR (Carterra LSA), antibody immobilised
# [1] = biological target: T1, murine CD300C-Fc
# In short: (§1)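 Mouse anti-CD300LB IgG1 antibodies were amine-coupled in a 96-spot array on an HC200M chip; Fc-fused CD300 ectodomains (human on hIgG1-Fc) flowed over as analytes at 300 nM or 600 nM in HBS-TE with 0.5 mg/ml BSA, injected in series without regeneration, with kinetics fitted by high-throughput analysis.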
# [2] = biological target: T2, human CD300D-Fc
# In short: as §1
# [3] = biological target: T3, human CD300F-Fc
# In short: as §1
# [4] = biological target: T4, human CD300A-Fc
# In short: as §1
binding result [1],binding result [2],binding result [3],binding result [4],Binder
no binding (tested: 300 nM or 600 nM),–,–,–,"anti-CD300LB antibody CD-12 (antibody, V domains shown) VH: QIQLVQSGPELKKPGETVKISCKASGYTFTDYSMHWVRQAPGKGLKWMAWINTETGEATHADDFKGRFDFSLDTSASTAYLQIKNLKNEDTGIYFCVCYGSSYGMDYWGQGTSVTVSS VL: DIVLTQSPASLPVSLGQRATISCRASKSVRTSGASYMHWYQQKPGQPPKLLIYLASNLKSGVPTRFSGSGSGTDFTLNIHPVEEEDAATYYCQHNREVPPTFGGGTKLEIK"
–,no binding (tested: 300 nM or 600 nM),no binding (tested: 300 nM or 600 nM),no binding (tested: 300 nM or 600 nM),"anti-CD300LB antibody CD-01 (antibody, V domains shown) VH: RVQLQQSGAELVRPGASVTLSCKASGFTFTDFEMHWVKKTPVHGLEWIGAIDPESGNTAYNQKFRGKATLTADKSSSTAYMELRYLTSEDSAVYYCTPLISGADYWGQGTTLTVSS VL: DVVMTQSPLSLPVSLGDQASISCRSSQSLVHSDGNTYLYWYLQKPGQSPKLLIYKVSNRFSGVPDRFSGSGSGTDFTFKISRVGAEDLGVYFCSQSTHVPWTFGGGTKLEII"

# Further lines, the binder ahead of its results:
Binder,binding result [1],binding result [2],binding result [3],binding result [4]
"anti-CD300LB antibody CD-18 (antibody, V domains shown) VH: DVQLQESGPDLVKPSQSLSLTCTVTGYSITSGYSWHWIRQFPDNKLEWMGYILSRGDTNFNPSLKSRISITRSTSNNQFFLHFNSVTTEDTATYYCARDFFDYWGQGTTLTVSS VL: DVLMTQTPLSLPVSLGDQASISCRSSQSIVHSNGNTYLEWYLQKPGQSPKLLIYKVSDRFSGVPDRFSGSGSGTDFTLKISRVEAEDLGVYFCFQGSHVPYTFGGGTKLEIK",no binding (tested: 300 nM or 600 nM),–,–,–
"anti-CD300LB antibody CD-02 (antibody, V domains shown) VH: QVQLQQPGAELVRPGSSVKLSCQASGYTFTNYWMHWVRQRPIQGLEWIGNIDPSDSETHYNQKFKDRATLTVDKSSSTAYMQLSSLTSEDSAVYYCARSGVYDDEGGDYWGQGTTLTVSS VL: ENVLTQSPAIMSASPGEKVTMTCSASSSVSYIHWYQQKSSTSPKLWIYDTSKLASGVPGRFSGSGSGNSYSLTISSMETEDVATYYCFQGSGYPLTFGAGTKLELK",–,no binding (tested: 300 nM or 600 nM),no binding (tested: 300 nM or 600 nM),no binding (tested: 300 nM or 600 nM)
"anti-CD300LB antibody CD-17 (antibody, V domains shown) VH: QIQLVQSGPELKKPGETVKISCKASGYTLTDYSMHWVKQAPGKGLKWMGWINTETGEPRYGDDFKGRFAFSLETSASSAYLQINNLKNDDTATYFCATYGRSYGMDFWGQGTSVTVSS VL: DIVLTQSPASLAVSLGQRATISCRASKSVSPSGHSYMHWYQQKPGQPPKLLIYLASNLKSGVPARFSGSGSGTDFTLNIHPVEEGDAATYYCQHNRELPPTFGGGSKLEIK",no binding (tested: 300 nM or 600 nM),–,–,–
"anti-CD300LB antibody CD-03 (antibody, V domains shown) VH: EVQLQQSGPELVKPGASVKISCKASGYTFTDYYINWVRQSHGKSLECIGDINPNNGGTNYNQKFKGKATLTVDRSSNTAYMEFRSLTFDDSALYYCAAEGAYWGQGTLVTVSA VL: not shown",–,no binding (tested: 300 nM or 600 nM),no binding (tested: 300 nM or 600 nM),no binding (tested: 300 nM or 600 nM)
"anti-CD300LB antibody CD-05 (antibody, V domains shown) VH: QVQLVQSGAEVKKPGASVKVSCKASGYTFSRYYINWVRQAPGQGLEWMGWINPNSGGTNYAQKFQGRVTMTRDTSTSTVYMELSSLRSEDTAVYYCTTDQLRFGKTGPYYGMDVWGQGTTVTVSS VL: DIQMTQSPSSLSASVGDRVTITCRASQNIGTYLNWYQQKPGKAPKLLIYAASSLQSGVPSRFSGSGSGTDFTLTISSLQPEDFATYYCQQSYSDTLTFGGGTKVEIK",–,no binding (tested: 300 nM or 600 nM),no binding (tested: 300 nM or 600 nM),no binding (tested: 300 nM or 600 nM)
